In IntAct's records for PubMed 25910212:

B1: PiggyBac transposable element-derived protein 1 (Homo sapiens), Q96JS3 (parent)
chain: MYEALPGPAPENEDGLVKVKEEDPTWEQVCNSQEGSSHTQEICRLRFRHFCYQEAHGPQEALAQLRELCHQWLRPEMHTKEQIMELLVLEQFLTILPKELQPCVKTYPLESGEEAVTVLENLETGSGDTGQQASVYIQGQDMHPMVAEYQGVSLECQSLQLLPGITTLKCEPPQRPQGNPQEVSGPVPHGSAHLQEKNPRDKAVVPVFNPVRSQTLVKTEEETAQAVAAEKWSHLSLTRRNLCGNSAQETVMSLSPMTEEIVTKDRLFKAKQETSEEMEQSGEASGKPNRECAPQIPCSTPIATERTVAHLNTLKDRHPGDLWARMHISSLEYAAGDITRKGRKKDKARVSELLQGLSFSGDSDVEKDNEPEIQPAQKKLKVSCFPEKSWTKRDIKPNFPSWSALDSGLLNLKSEKLNPVELFELFFDDETFNLIVNETNNYASQKNVSLEVTVQEMRCVFGVLLLSGFMRHPRREMYWEVSDTDQNLVRDAIRRDRFELIFSNLHFADNGHLDQKDKFTKLRPLIKQMNKNFLLYAPLEEYYCFDKSMCECFDSDQFLNGKPIRIGYKIWCGTTTQGYLVWFEPYQEESTMKVDEDPDLGLGGNLVMNFADVLLERGQYPYHLCFDSFFTSVKLLSALKKKGVRATGTIRENRTEKCPLMNVEHMKKMKRGYFDFRIEENNEIILCRWYGDGIISLCSNAVGIEPVNEVSCCDADNEEIPQISQPSIVKVYDECKEGVAKMDQIISKYRVRIRSKKWYSILVSYMIDVAMNNAWQLHRACNPGASLDPLDFRRFVAHFYLEHNAHLSD
partner: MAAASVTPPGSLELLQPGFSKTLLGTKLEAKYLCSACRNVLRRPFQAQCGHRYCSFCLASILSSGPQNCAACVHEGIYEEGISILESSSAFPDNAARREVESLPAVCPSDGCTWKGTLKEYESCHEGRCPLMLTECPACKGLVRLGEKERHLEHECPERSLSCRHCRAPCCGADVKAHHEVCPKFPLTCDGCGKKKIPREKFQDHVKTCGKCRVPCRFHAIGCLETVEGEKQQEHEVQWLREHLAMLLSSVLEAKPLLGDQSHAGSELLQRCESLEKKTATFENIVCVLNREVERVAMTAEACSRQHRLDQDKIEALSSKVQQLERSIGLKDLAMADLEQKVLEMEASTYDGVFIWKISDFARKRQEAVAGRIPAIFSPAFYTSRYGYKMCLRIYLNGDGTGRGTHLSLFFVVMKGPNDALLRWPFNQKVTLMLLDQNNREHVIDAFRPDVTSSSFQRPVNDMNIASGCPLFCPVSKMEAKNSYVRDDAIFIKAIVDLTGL
B2: Regulator of G-protein signaling 2 (Homo sapiens), P41220 (parent)
chain: MQSAMFLAVQHDCRPMDKSAGSGHKSEEKREKMKRTLLKDWKTRLSYFLQNSSTPGKPKTGKKSKQQAFIKPSPEEAQLWSEAFDELLASKYGLAAFRAFLKSEFCEENIEFWLACEDFKKTKSPQKLSSKARKIYTDFIEKEAPKEINIDFQTKTLIAQNIQEATSGCFTTAQKRVYSLMENNSYPRFLESEFYQDLCKKPQITTEPHAT
B3: ATP synthase mitochondrial F1 complex assembly factor 2 (Homo sapiens), Q8N5M1 (parent)
chain: MWRSCLRLRDGGRRLLNRPAGGPSASMSPGPTIPSPARAYAPPTERKRFYQNVSITQGEGGFEINLDHRKLKTPQAKLFTVPSEALAIAVATEWDSQQDTIKYYTMHLTTLCNTSLDNPTQRNKDQLIRAAVKFLDTDTICYRVEEPETLVELQRNEWDPIIEWAEKRYGVEISSSTSIMGPSIPAKTREVLVSHLASYNTWALQGIEFVAAQLKSMVLTLGLIDLRLTVEQAVLLSRLEEEYQIQKWGNIEWAHDYELQELRARTAAGTLFIHLCSESTTVKHKLLKE
partner: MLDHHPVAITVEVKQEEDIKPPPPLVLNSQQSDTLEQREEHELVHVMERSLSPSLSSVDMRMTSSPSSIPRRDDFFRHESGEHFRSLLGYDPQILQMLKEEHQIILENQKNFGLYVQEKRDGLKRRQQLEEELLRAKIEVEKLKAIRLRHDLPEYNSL
B4: AMP deaminase 3 (Homo sapiens), Q01432 (parent)
chain: MPRQFPKLNISEVDEQVRLLAEKVFAKVLREEDSKDALSLFTVPEDCPIGQKEAKERELQKELAEQKSVETAKRKKSFKMIRSQSLSLQMPPQQDWKGPPAASPAMSPTTPVVTGATSLPTPAPYAMPEFQRVTISGDYCAGITLEDYEQAAKSLAKALMIREKYARLAYHRFPRITSQYLGHPRADTAPPEEGLPDFHPPPLPQEDPYCLDDAPPNLDYLVHMQGGILFVYDNKKMLEHQEPHSLPYPDLETYTVDMSHILALITDGPTKTYCHRRLNFLESKFSLHEMLNEMSEFKELKSNPHRDFYNVRKVDTHIHAAACMNQKHLLRFIKHTYQTEPDRTVAEKRGRKITLRQVFDGLHMDPYDLTVDSLDVHAGRQTFHRFDKFNSKYNPVGASELRDLYLKTENYLGGEYFARMVKEVARELEESKYQYSEPRLSIYGRSPEEWPNLAYWFIQHKVYSPNMRWIIQVPRIYDIFRSKKLLPNFGKMLENIFLPLFKATINPQDHRELHLFLKYVTGFDSVDDESKHSDHMFSDKSPNPDVWTSEQNPPYSYYLYYMYANIMVLNNLRRERGLSTFLFRPHCGEAGSITHLVSAFLTADNISHGLLLKKSPVLQYLYYLAQIPIAMSPLSNNSLFLEYSKNPLREFLHKGLHVSLSTDDPMQFHYTKEALMEEYAIAAQVWKLSTCDLCEIARNSVLQSGLSHQEKQKFLGQNYYKEGPEGNDIRKTNVAQIRMAFRYETLCNELSFLSDAMKSEEITALTN
B5: Inhibin alpha chain (Homo sapiens), P05111 (parent)
chain: MVLHLLLFLLLTPQGGHSCQGLELARELVLAKVRALFLDALGPPAVTREGGDPGVRRLPRRHALGGFTHRGSEPEEEEDVSQAILFPATDASCEDKSAARGLAQEAEEGLFRYMFRPSQHTRSRQVTSAQLWFHTGLDRQGTAASNSSEPLLGLLALSPGGPVAVPMSLGHAPPHWAVLHLATSALSLLTHPVLVLLLRCPLCTCSARPEATPFLVAHTRTRPPSGGERARRSTPLMSWPWSPSALRLLQRPPEEPAAHANCHRVALNISFQELGWERWIVYPPSFIFHYCHGGCGLHIPPNLSLPVPGAPPTPAQPYSLLPGAQPCCAALPGTMRPLHVRTTSDGGYSFKYETVPNLLTQHCACI
partner: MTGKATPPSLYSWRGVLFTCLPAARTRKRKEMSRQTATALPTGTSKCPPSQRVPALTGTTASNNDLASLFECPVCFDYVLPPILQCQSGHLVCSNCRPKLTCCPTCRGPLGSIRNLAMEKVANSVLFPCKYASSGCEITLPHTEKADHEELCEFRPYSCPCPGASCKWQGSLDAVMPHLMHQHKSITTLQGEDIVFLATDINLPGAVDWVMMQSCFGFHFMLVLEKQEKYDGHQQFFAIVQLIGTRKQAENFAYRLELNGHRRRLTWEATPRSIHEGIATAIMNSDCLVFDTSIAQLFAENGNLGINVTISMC
B6: U4/U6 small nuclear ribonucleoprotein Prp31 (Homo sapiens), Q8WWY3 (parent)
chain: MSLADELLADLEEAAEEEEGGSYGEEEEEPAIEDVQEETQLDLSGDSVKTIAKLWDSKMFAEIMMKIEEYISKQAKASEVMGPVEAAPEYRVIVDANNLTVEIENELNIIHKFIRDKYSKRFPELESLVPNALDYIRTVKELGNSLDKCKNNENLQQILTNATIMVVSVTASTTQGQQLSEEELERLEEACDMALELNASKHRIYEYVESRMSFIAPNLSIIIGASTAAKIMGVAGGLTNLSKMPACNIMLLGAQRKTLSGFSSTSVLPHTGYIYHSDIVQSLPPDLRRKAARLVAAKCTLAARVDSFHESTEGKVGYELKDEIERKFDKWQEPPPVKQVKPLPAPLDGQRKKRGGRRYRKMKERLGLTEIRKQANRMSFGEIEEDAYQEDLGFSLGHLGKSGSGRVRQTQVNEATKARISKTLQRTLQKQSVVYGGKSTIRDRSSGTASSVAFTPLQGLEIVNPQAAEKKVAEANQKYFSSMAEFLKVKGEKSGLMST
partner: B5 partner
B7: Nuclear receptor subfamily 0 group B member 1 (Homo sapiens), P51843 (parent)
chain: MAGENHQWQGSILYNMLMSAKQTRAAPEAPETRLVDQCWGCSCGDEPGVGREGLLGGRNVALLYRCCFCGKDHPRQGSILYSMLTSAKQTYAAPKAPEATLGPCWGCSCGSDPGVGRAGLPGGRPVALLYRCCFCGEDHPRQGSILYSLLTSSKQTHVAPAAPEARPGGAWWDRSYFAQRPGGKEALPGGRATALLYRCCFCGEDHPQQGSTLYCVPTSTNQAQAAPEERPRAPWWDTSSGALRPVALKSPQVVCEAASAGLLKTLRFVKYLPCFQVLPLDQQLVLVRNCWASLLMLELAQDRLQFETVEVSEPSMLQKILTTRRRETGGNEPLPVPTLQHHLAPPAEARKVPSASQVQAIKCFLSKCWSLNISTKEYAYLKGTVLFNPDVPGLQCVKYIQGLQWGTQQILSEHTRMTHQGPHDRFIELNSTLFLLRFINANVIAELFFRPIIGTVSMDDMMLEMLCTKI

Variants of: B1
Details: with traf2_human TRAF2, Q12933

| effect of a mutation on the interaction | Variant |
| --- | --- |
| with no effect | H806D |
| with no effect | I678V |
| with no effect | P256L |
| with no effect | G244E |

Variants of: B2
Details: with MTUS2, Q5JR59-3
Sequence of MTUS2, Q5JR59-3 (Q5JR59 other isoform, or with tags, fused parts or gaps): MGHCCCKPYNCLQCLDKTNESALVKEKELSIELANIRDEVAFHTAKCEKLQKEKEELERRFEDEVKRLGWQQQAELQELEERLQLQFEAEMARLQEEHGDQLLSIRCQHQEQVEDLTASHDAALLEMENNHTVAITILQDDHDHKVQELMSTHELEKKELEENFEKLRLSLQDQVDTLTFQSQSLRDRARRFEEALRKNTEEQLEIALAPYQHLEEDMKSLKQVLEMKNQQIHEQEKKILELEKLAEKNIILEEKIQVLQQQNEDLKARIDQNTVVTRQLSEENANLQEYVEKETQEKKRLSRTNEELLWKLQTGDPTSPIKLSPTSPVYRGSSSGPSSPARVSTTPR

| effect of a mutation on the interaction | Variant |
| --- | --- |
| with no effect | R44H |
| with no effect | Q2R |
| with no effect | Q2L |

Variants of: B3
Details: with FSBP

| effect of a mutation on the interaction | Variant |
| --- | --- |
| disrupting interaction strength | W94R |

Variants of: B4
Details: with hs90b_human HSP90AB1, P08238
Sequence of hs90b_human HSP90AB1, P08238 (P08238 whole entry): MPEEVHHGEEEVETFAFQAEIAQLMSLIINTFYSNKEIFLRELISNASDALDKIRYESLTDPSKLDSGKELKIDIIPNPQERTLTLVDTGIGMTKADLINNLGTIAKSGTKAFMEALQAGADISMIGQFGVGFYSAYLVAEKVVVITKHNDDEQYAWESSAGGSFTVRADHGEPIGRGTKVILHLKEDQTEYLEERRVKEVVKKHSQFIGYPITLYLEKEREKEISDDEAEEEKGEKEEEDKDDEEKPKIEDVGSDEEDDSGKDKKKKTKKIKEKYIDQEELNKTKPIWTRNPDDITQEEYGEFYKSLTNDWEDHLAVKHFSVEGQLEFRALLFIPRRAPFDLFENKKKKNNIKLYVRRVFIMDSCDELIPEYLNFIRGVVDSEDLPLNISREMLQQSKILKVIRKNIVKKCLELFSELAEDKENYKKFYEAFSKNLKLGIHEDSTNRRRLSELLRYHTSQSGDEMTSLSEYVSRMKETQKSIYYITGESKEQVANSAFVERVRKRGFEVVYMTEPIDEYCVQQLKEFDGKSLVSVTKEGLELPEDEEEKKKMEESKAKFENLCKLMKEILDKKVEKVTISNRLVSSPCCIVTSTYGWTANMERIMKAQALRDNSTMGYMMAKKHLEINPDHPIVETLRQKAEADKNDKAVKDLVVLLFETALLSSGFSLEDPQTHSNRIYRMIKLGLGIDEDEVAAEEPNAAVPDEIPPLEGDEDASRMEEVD

| effect of a mutation on the interaction | Variant |
| --- | --- |
| increasing interaction strength | W450R |
| increasing interaction strength | A320V |

Variants of: B5
Details: with SIAH1, Q8IUQ4-2

| effect of a mutation on the interaction | Variant |
| --- | --- |
| with no effect | A257T |
| with no effect | A182D |
| with no effect | P43A |

Variants of: B6
Details: with SIAH1, Q8IUQ4-2

| effect of a mutation on the interaction | Variant |
| --- | --- |
| with no effect | L107V |

Variants of: B7
Details: with stf1_human NR5A1, Q13285
Sequence of stf1_human NR5A1, Q13285 (Q13285 whole entry): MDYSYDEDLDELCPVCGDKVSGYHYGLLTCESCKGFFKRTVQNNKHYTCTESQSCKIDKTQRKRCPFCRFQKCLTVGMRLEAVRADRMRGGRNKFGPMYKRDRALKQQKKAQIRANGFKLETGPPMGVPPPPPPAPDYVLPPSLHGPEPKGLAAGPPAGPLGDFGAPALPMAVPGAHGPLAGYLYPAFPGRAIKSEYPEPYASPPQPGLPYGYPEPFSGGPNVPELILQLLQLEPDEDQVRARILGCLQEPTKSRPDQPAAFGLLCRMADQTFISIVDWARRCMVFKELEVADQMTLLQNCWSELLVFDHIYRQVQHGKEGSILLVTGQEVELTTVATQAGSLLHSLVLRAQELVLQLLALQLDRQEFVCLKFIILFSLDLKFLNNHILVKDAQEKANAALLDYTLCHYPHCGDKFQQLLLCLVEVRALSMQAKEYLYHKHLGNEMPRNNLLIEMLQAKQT

| effect of a mutation on the interaction | Variant |
| --- | --- |
| with no effect | W105C |
